Data on two molecules can be found in US20190322705A1 (NORWEGIAN UNIVERSITY OF LIFE SCIENCES, published 2019).

Holding throughout (assay): cell-based or functional assay
The target in assay [1] is RseP of E. faecalis Y24>A, expressed in S. pneumoniae ms4 (Enterococcus faecalis) (UniProt Q9RPP2).
For assay [2], the target named is RseP of E. faecalis HExxH>AAxxA, expressed in S. pneumoniae ms5 (Enterococcus faecalis) (UniProt Q9RPP2).
The target in assay [3] is RseP of E. faecalis LMGT3358 (WT rseP), expressed in S. pneumoniae ds220 (Enterococcus faecalis) (UniProt Q9RPP2).
Assay [4] deals with RseP of E. faecalis H18>A, expressed in S. pneumoniae ms1 (Enterococcus faecalis) (UniProt Q9RPP2).
The target of assay [5] is RseP of E. faecalis H22>A, expressed in S. pneumoniae ms3 (Enterococcus faecalis) (UniProt Q9RPP2).
Assay [6] deals with RseP of E. faecalis E19>A, expressed in S. pneumoniae ms2 (Enterococcus faecalis) (UniProt Q9RPP2).
The target of assay [7] is T1, RseP of E. faecalis HExxH>AAxxA, expressed in S. pneumoniae ms5 (Enterococcus faecalis, UniProt Q9RPP2 1-422).
T1 sequence: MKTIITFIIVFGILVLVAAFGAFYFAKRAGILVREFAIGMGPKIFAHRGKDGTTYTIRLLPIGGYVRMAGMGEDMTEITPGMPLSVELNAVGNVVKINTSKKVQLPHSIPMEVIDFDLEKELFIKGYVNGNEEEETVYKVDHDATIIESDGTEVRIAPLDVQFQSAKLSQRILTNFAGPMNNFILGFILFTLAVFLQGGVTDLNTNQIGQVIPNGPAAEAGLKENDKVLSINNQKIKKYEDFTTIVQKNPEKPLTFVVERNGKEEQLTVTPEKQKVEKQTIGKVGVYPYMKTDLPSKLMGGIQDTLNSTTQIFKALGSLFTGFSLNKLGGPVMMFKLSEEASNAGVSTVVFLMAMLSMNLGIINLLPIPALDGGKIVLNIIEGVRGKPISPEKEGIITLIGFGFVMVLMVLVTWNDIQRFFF

A value given as a limit tells only on which side of the number the result lay.

The molecule LsbB (peptide) had an MIC (nM), S. pneumoniae ms4 in assay [1] above 7000 nM. In assay [2], the MIC (nM), S. pneumoniae ms5 was above 7000 nM. Further, the MIC (nM), S. pneumoniae ds220 induced in assay [3] was above 7000 nM. This molecule also registered an MIC (nM), S. pneumoniae ms1 in assay [4] above 7000 nM. This molecule had an MIC (nM), S. pneumoniae ms3 in assay [5] above 7000 nM. Also, the MIC (nM), S. pneumoniae ms2 in assay [6] is above 7000 nM.
With MLAKIKAMIKKFPNPYTLAAKLTTYEINWYKQQYGRYPWERPVA [EntEJ97], in assay [7], the “fold resistance against the WT RseP strain” value worked out at 30 times.
